Laboratory results from the supplement of paper PMC12636428.

Tested on: Saccharomyces cerevisiae
Experiment: transcriptional activation domain activity (GFP:mCherry ratio, weighted mean of sorted bins, harmonized to initial dataset scale) (arbitrary fluorescence ratio units); higher = stronger transcriptional activation
Details: beta-estradiol 1 µM; induction time 4 h
How it was run: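 For this assay, yeast diploids with a GFP reporter carried barcoded protein tiles at URA3, each fused to an estradiol-inducible synthetic transcription factor. Induction was a 1:5 dilution into SC with 1 uM beta-estradiol for 4 hours at 30 °C, followed by sorting into 8 bins by GFP:mCherry ratio and barcode sequencing. Tiles under 50 reads were dropped, and activation activity was calculated as the read-weighted mean of bin median fluorescence, averaged across barcodes and linearly mapped onto the initial dataset scale.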

Sequence	transcriptional activation domain activity
MSNVYNCHPALLCYLALPCPTHLCLLSSLFPSVVSTVHAFLLLFLALCPISWI	71400
SSSEEEVEVEVDKKTGVKRKRVKKQKVKKDVHNLVWSVVSQKKVFTDCWLGVL	91900
MLLHVFRLIEIIEILWISCICAILLVVFVILEVCNLFVLGRKISFLMFCVWVI	54400
YGLIYSILLHLCAVFISSLRRLTVLRELLRMLFLFSCFWFAVSISYMSVLYTI	49300
ETIHGPAPATSFDDTNFTWQLFDESPGFDPLAQLQSFSDFGLSGHDLLFGFMD	123000
TAIVTVISTVMAIATVTATGIMSIIDTMSTTAIITAIAMDMVTESIMVITAIT	87500
LLLCGEICVACIVLYIHIVFFFGFFFFFLLGMIGLCLTFSNQLILFVYFLYFL	43200
KFHYRCGVAAKDTTESLRWVVADHYTWFTCTHCAAHKAHWYFDGSLGLVRLWF	69200
LAYLVMQGFFRTFGLMCFNFDSAFRLAVFFIPNFVEYTGYILPVISMQRWLFW	63100
MVLSILEIICAVVVLHPSCNYHIFSQCICEFSSWSFAISALLVVVLFWAAVAR	56000
LLVRLRKEYYLALFIFWRVGYNVLLGLMLRSQSDWNLLVRFAKRYGFGQNAGK	48800
MTNRLHIICHICVFYGYVLMFPAITSYYFILLCILILILHLFIFILAHFYKDR	37300
HIFYTQLYPAYDLPKKLQEDTELETEQENQMLNQVGNINYTHDFSLSHEIDDL	57800
RSSRRDRDEDENERHSRHRRENRRRSHSSDERHGDARRRDEKSRHHRSSRHER	17900
LVWLDNWPAGLKLNTELSRFLCLCFMSLTDIWGNLLAPYLPLILRIIGIMGRT	57200
WAQERGVYANVFGYPGGVAWAMLVARICQLYPNAVSAVVIRKFFQIYSQWKWP	29700
MMLWWRWRWILLLMLMLMLRWRWWWHTSLWWRWSKCLLTRLLLLLLLWWWDSF	55000
VVVYCKSIDLLFRVALYLWRSPAVIAWISFAARQARVIVATVVFGLGINRADI	69400
LLFLLAHWHALAKLRMHTDSTLTLLDCATKSLGAALRDFQTKVCPAFNTHELR	51400
LDSYPNVLTFAVYTYLRLIPEHRHIQLATLQQREIRFVVSMLRQKWNLCAVIG	30100
KASGSARESVDGEEDKEEAKEKNKENVKVEEKLDADEGEKESKVKAEAAKEPG	20300
MSVLYIEDTFPSCFIKFKELVVCSRLCMMFPFQYQFASLLLYLILLLAYHLFL	54300
VVFNQIWIYFFIYTMIFICLILVAFYTVLLVLLIHPKKIPHNTRTVLNVYRAR	66100
ARVLRWCLTMICLTVSALLGRVILFSSAALTLVEILHDDFGFSRNLVLKNLCN	90400
MVIFRLGSAPFFFLLFLFVLFFRFFFLVCCCLYGWVSVFLLLFFLRFFVSKWG	50700

Sequence	transcriptional activation domain activity
MAIDIFFCLAVHIPTCVNLWGHVRTILYVQLVTVMYPSHFLFYFLFLLFYFFL	34200
VMLNQQILYFCLRILCMHAYAQFRMEDSDIWRMVEKKKHIYNRLIELVYTLCS	46300
GILRYCKIWLAWVQIHFGVHFFVLTIWYRMWNLHRLVVQQKLLSGWSYYLPII	36800
FHPIPFLFSSSPLFLIPIFSFHIFHFLLLPFFPSLLLSSFSIPFIPLLSIHSS	57600
WWLRINLNICISYWIVATGVVVVYDWVLTLYGACQILLVMQMFVLGPCLILSV	46900
VSVRQASDGVGCLLEVMAHSRSVNAWTRVLKQLRLAQCVLLNIQQSLSQVWSM	77300
ASSSTPGAHQPTRRSAGAHRSEEHSVVLHLPPGTHRMKFIVDDRWRVSRELPT	29000
LANISLFTSFHQTDINWCGPTRLRWFGYCFCGMFVYYWLPGYFFQILTFFSWA	73700
LIFSLKVLVMLICIIMIEFYITYAVAVGYIYAVAILEPFRPQLAVAFTWIRPV	66600
YSASPLEGDSSLPSSLPSSTEDCLLLSLENTITVIAGNQRQAYDSTSSTEEGT	16100
TTLVTGTQLFFLLSFRDTMFAFSFLLFSPFVLFLWYGFFSSGALFISLICFLV	54700
RPFLLNCKDINQFTNLIWERIRITNGTKMYWVWQHLRCVVMFFTLQPNQRILL	83700
NLMVIVLFVGNLRLVIENIQKYGVLICIRCHDVRESDLILGLSLYFLIPCHLL	67300
MFFPLVLSKMLICVSFLPVTLLISYLSFFFLFFTGLGLGATAFFFFTFLLYFS	42100
MLLASGCWIQSTYGLFYKCLYFFYLAIFFDHFTFSLNNFLITQCRYPIISLFI	78000
MIHSIAVYIMLISSTLTHSLISLLFYILSLYVGIFYTYHILFKVLFICQWFLF	76200
MIVMNQPNYIFDEFAIIISVYISSISNLAFYFGYDFLVLLFLQNLLEFIIMCY	76800
GGKKGGRTKGATARDKSPEGRTDRPASKGKSLKTGGEDGKGKKSGERAGKLAH	60400
MISFPLFDPVVFNPFLFYDILSSFCSCFSFFFSLLFFPILQYPFLFFSCFFIA	60100
MSLASLAAQRSNCMKRAVGCVLVGRERRVISTGYNGTPRGIRNCGEGGCARCN	44500
CHLTVIYFMSVPVIYLRLARLLFLEILTAGRIAIEGNGLGQGSLLAKTLRGRQ	66500
VVVILRMWAFCYRGSGHAHEMLHLLHNLICVWTKEFQYIVLQNWLANPQGKPK	58500
MPASSSTAAASPGNSHNVVGVHYKVGKKIGEGSFGIIYEGKQKEERTNLLNNQ	35300
DSSEVQRKKRRDSRKSKKESKSSSRRKDRSKDRSGRSKQRESKKKDRRRARSE	< 6570
AKDGEEEKEKPKRGRKRKEAPAAEGEAEGEAADDAEPPAKKTKPASKAAPASK	23100

Sequence	transcriptional activation domain activity
KSKSSRSSRRREGEEDDDRRRRRHRHRSRSRSRSRGRGGGSDDGSKEQRRSSR	40100
LCILVYLSHVSYLTLLPRFDYLYNIIFNMVIGLSHNALWLVYSLPISAFRRFP	75800
EKTVEQPEELKETGGKEPRIERKLPLQYDHHQRKTRDNQMFQLAVVIYFLGKL	40300
PLLNGSAIISRLTTGVIGDRYGVLTCEVPVAFITGCLIFSMCVLLLIILHLVC	21700
ELLSVLIPPSPAETRGPTTLSTSPSFNEHGVVAEASFLSSILELGIKHPKSNN	27900
ALLAISLTSFLCSSVFLEIETWCKKYRSHLLLVLMIPMVEPLISLFISFMWLL	62500
RASTTSPTCSGTSTSARGRGAACSRGASTSGRCTRSSRRTRGSRSGTATSTTR	33600
FLSYFSGWLTVIAWQCLVASASYVSGTLLQGLLVLNYPTYVFERWQGTLLMYA	57900
AEAEKMDVDPAVSTAETEVKQESPAPAAATSVSTPEVKVTPSSAHPSLPAKPL	18400
AYHSAKHVIVPNDGKLLAMTDPLISDLDEDGQKGLLIISRGTALLLLGVYIAY	47300
MHCVLALSLGLLSRVIVFYGCSFRGKLHFMMFWEALYLLLIFMRMLWLLFFIT	51000
SLNVLACGAIILFPRLAFLVVNNNAIVLGLRVMFVKFVFVCLLALWCFAGFLL	69300
VDDSDDDGDEEGGKNEESITKKGVRLLDYACGTGLVSRVSHIPSIAGASSRSL	46600
MSDDLGASPTQRPLRKSHRKSRKGCLDCRRRRVKCGEERPSCLVCVRRNVRCE	49200
LFSDTSFTIVFSNNVSFTYISFDKKVFFCIFFFLLVYFCQTFSFFLLFFLFFL	44400
MTSWPLLPPYSIHAMIKMIAFSSLFCSFFSLHLFFYYYLPLYIAVFIFFIVTH	32400
VRTALLKSSHDADIDATVHDQAVREFCSSLNAVTRGVNVLVMTVALLVEIYAA	84400
ALKKKDGDKDSADFLSQLRMGKSVLHGVDKEGRPVVSVRVRLHKGGEQTEKSL	36600
YYVILLSIKLFGINSSLWALLITLTNWFNLYLSCRLIPNNIEGILTIIALYYW	66500
HHLHAFLLGLGFLFSLLICVSSSCLVSSSLLRLLLLLPRFARWIRFLLYILLL	64400
KKGREDMGNERKGNDMEGREGEKRGRKGKREGGGKGGKGGEKQREGRTGERGR	21800
LLKNNILKWMCLVFRFVTRRVRFTYLTLPLATRCVGQGLVYIIRIIQDGHSYI	43100
MATPSTGAPPPKQIRFVNNQGQPPSKRRRVNAACLTCRKRKTRCDGEKPTCST	20200
FKLNTVTNLNEIDFTNIFTKSPHPHSGSTHPRQVFDQLDDCSSILFSPLTTNT	67700
